Data published in patent US20050043510A1, “Affinity purification system using troponin molecules as affinity ligands” (priority 2003, published 2005).

Columns and labels:
[1] = target: rabbit skeletal muscle troponin C (Oryctolagus cuniculus, UniProt P02586); details: in the presence of calcium; Hanson Pierce et al. (1998); cited from earlier work
calmodulin = calmodulin (Homo sapiens, UniProt P0DP23); details: in the presence of calcium; Hanson Pierce et al. (1998); cited from earlier work
bovine serum albumin = bovine serum albumin (Bos taurus, UniProt P02769); details: in the presence of calcium; Hanson Pierce et al. (1998); cited from earlier work
[2] = tested on: troponin C-tagged C-terminal truncated version of La/SSB (TnC-LaΔC)

Sequence of bovine serum albumin (P02769 25-607): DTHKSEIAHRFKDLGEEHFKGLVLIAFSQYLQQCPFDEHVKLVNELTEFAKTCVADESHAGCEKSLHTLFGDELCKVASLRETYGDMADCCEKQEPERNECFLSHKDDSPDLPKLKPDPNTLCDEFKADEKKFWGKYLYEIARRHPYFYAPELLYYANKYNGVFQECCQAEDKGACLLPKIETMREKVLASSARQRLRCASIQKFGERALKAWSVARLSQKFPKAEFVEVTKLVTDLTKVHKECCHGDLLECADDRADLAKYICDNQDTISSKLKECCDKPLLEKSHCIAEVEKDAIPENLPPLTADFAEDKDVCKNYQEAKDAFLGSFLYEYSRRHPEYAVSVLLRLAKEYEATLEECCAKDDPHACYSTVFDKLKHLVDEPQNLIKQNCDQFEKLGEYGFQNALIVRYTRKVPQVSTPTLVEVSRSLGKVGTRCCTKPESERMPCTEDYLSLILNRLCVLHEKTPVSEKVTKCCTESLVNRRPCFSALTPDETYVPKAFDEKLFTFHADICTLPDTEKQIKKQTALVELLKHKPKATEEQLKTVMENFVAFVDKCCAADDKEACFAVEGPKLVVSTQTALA
Sequence of rabbit skeletal muscle troponin C (P02586 whole entry): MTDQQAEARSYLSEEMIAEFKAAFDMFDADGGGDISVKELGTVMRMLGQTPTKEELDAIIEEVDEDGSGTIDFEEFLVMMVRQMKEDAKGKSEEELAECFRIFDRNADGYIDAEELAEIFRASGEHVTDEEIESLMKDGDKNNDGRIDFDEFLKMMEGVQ

Substance	Calcium dependent binding [1]	Calcium dependent binding (calmodulin)	Calcium dependent binding (bovine serum albumin)	thrombin proteolytic cleavage (SDS-PAGE) [2]
SRLDYLKSSLLHLGSR (SEQ ID NO:1) [Troponin C binding peptide, previously described (Hanson Pierce et al. 1998)]	demonstrated	not	not	–
biotinylated thrombin (Thrombin Cleavage Capture Kit, Novagen)	–	–	–	apparent complete cleavage when 0.1 units of thrombin was used
